Results published in US20240132578A1.

How the values were obtained:
Test in all cases: cell-based or functional assay
[1] = target: HIV-1 Env of pseudovirus CAAN (HIV-1)
[2] = target: HIV-1 Env of pseudovirus REJ04541 (HIV-1)
[3] = target: HIV-1 Env of pseudovirus ZM214 (HIV-1)
[4] = target: HIV-1 Env of isolate NL43 (clade B) (HIV-1)
[5] = target: HIV-1 92RW020 Env (HIV-1 isolate 92RW020 (clade A))
[6] = target: HIV-1 APV6 Env (HIV-1 isolate APV6 (clade B))
[7] = target: HIV-1 MGRM-C-027 Env (HIV-1 isolate MGRM-C-027 (clade C))
[8] = target: HIV-1 MGRM-A-010 envelope glycoprotein (Env), clade A pseudovirus (HIV-1)
[9] = target: HIV-1 MGRM-C-027 envelope glycoprotein (Env), clade C pseudovirus (HIV-1)
[10] = target: HIV-1 92TH021 envelope glycoprotein (Env) on virus (HIV-1, clade AE, isolate 92TH021)
[11] = target: HIV-1 94UG103 envelope glycoprotein (Env) on virus (HIV-1, clade A, isolate 94UG103)
[12] = target: HIV-1 APV6 Env (pseudovirus) (HIV-1)
[13] = target: HIV-1 JRCSF Env (pseudovirus) (HIV-1) (UniProt P20871)
[14] = target: HIV-1 MGRM-A-010 Env (pseudovirus) (HIV-1)
[15] = target: HIV-1 MGRM-C-026 Env (pseudovirus) (HIV-1)
[16] = target: HIV-1 MGRM-C-028 Env (pseudovirus) (HIV-1)
[17] = target: HIV-1 JR-CSF Env E321aA (HIV-1 (isolate JR-CSF, clade B)) (UniProt P20871)
[18] = target: HIV-1 envelope glycoprotein (Env) of isolate 92RW020 (HIV-1)
[19] = target: HIV-1 envelope glycoprotein (Env) of isolate 92UG005 (HIV-1)
[20] = target: HIV-1 envelope glycoprotein (Env) of isolate APV17 (HIV-1)
[21] = target: HIV-1 envelope glycoprotein (Env) of isolate MGRM-C-026 (HIV-1)
[22] = target: HIV-1 envelope glycoprotein (Env) of isolate MGRM-C-027 (HIV-1)
[23] = target: HIV-1 92UG005 envelope glycoprotein (Env) (HIV-1)
[24] = target: HIV-1 93UG077 envelope glycoprotein (Env) (HIV-1)
[25] = target: HIV-1 APV13 envelope glycoprotein (Env) (HIV-1)
[26] = target: HIV-1 APV17 envelope glycoprotein (Env) (HIV-1)
[27] = target: HIV-1 MGRM-D-018 envelope glycoprotein (Env) (HIV-1)
[28] = target: HIV-1 Env of isolate MG RM-D-018 (subtype D) (HIV-1)
[29] = target: HIV-1 Env of isolate MGRM-F1-008 (subtype F) (HIV-1)
[30] = target: HIV-1 Env of pseudovirus 92UG001 (HIV-1)
[31] = target: HIV-1 envelope glycoprotein (Env) of isolate MG RM-A-002 (HIV-1)
[32] = target: HIV-1 envelope glycoprotein (Env) of isolate MG RM-A-008 (HIV-1)

5329_C19 (PGT-136) (antibody), sequence (VH): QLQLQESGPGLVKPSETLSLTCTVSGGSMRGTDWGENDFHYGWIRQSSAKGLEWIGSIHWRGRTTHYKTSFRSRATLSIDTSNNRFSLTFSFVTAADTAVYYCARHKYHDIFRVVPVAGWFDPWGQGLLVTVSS
5329_C19 (PGT-136) (antibody), sequence (VL): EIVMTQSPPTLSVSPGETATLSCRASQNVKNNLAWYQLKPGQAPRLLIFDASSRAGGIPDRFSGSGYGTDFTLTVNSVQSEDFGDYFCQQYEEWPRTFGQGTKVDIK
1443_C16 (PG16) (TCN-116) (antibody), sequence (VH): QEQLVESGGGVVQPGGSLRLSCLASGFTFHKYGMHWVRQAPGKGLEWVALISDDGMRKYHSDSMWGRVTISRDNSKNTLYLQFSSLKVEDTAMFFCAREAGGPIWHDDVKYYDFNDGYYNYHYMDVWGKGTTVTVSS
1443_C16 (PG16) (TCN-116) (antibody), sequence (VL): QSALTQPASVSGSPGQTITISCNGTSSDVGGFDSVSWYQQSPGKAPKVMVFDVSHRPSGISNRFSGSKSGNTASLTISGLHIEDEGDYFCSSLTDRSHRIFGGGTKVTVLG

1443_C16 (PG16) (TCN-116) (antibody)
IC50, pseudovirus neutralization (TZM-bl assay) [1]: 6.37 mg/L
IC50, pseudovirus neutralization (TZM-bl assay) [2]: < 0.01 mg/L
IC50, pseudovirus neutralization (TZM-bl assay) [3]: > 25 mg/L

1496_C09 (PG9) (TCN-109) (antibody)
neutralization IC50 [4]: 0.687 mg/L

4838_L06 (PGT-121) (antibody)
Neutralization IC80 [5]: 0.0188 mg/L
Neutralization IC90 [5]: 0.0361 mg/L
Neutralization IC95 [5]: 0.0671 mg/L
Neutralization IC80 [6]: 0.145 mg/L
Neutralization IC95 [6]: 0.569 mg/L
Neutralization IC80 [7]: 0.0829 mg/L
Neutralization IC90 [7]: 0.374 mg/L
Neutralization IC95 [7]: 3.14 mg/L

4858_P08 (PGT-123) (antibody)
IC50, pseudovirus neutralization [8]: 0.492 mg/L
IC80 (pseudovirus neutralization) [8]: 2.79 mg/L
IC90 (pseudovirus neutralization) [8]: 6.44 mg/L
IC95 (pseudovirus neutralization) [8]: > 10 mg/L
IC50, pseudovirus neutralization [9]: 0.0169 mg/L
IC80 (pseudovirus neutralization) [9]: 0.149 mg/L
IC90 (pseudovirus neutralization) [9]: > 10 mg/L
IC95 (pseudovirus neutralization) [9]: > 10 mg/L

4877_D15 (PGT-122) (antibody)
Neutralization IC80 [10]: > 10 mg/L
Neutralization IC90 [10]: > 10 mg/L
Neutralization IC95 [10]: > 10 mg/L
neutralization IC50 [10]: > 10 mg/L
Neutralization IC80 [11]: 6.58 mg/L
Neutralization IC90 [11]: > 10 mg/L
Neutralization IC95 [11]: > 10 mg/L
neutralization IC50 [11]: 1.46 mg/L

5123_A06 (PGT-125) (antibody)
Neutralization by PGT-125, IC50 [12]: 0.0359 mg/L
Neutralization by PGT-125, IC80 [12]: 0.133 mg/L
Neutralization by PGT-125, IC90 [12]: 0.288 mg/L
Neutralization by PGT-125, IC95 [12]: 0.597 mg/L
Neutralization by PGT-125, IC50 [13]: 0.006 mg/L
Neutralization by PGT-125, IC80 [13]: 0.0196 mg/L
Neutralization by PGT-125, IC90 [13]: 0.0392 mg/L
Neutralization by PGT-125, IC95 [13]: 0.0741 mg/L
Neutralization by PGT-125, IC50 [14]: 0.0055 mg/L
Neutralization by PGT-125, IC80 [14]: 0.024 mg/L
Neutralization by PGT-125, IC90 [14]: 0.0575 mg/L
Neutralization by PGT-125, IC95 [14]: 0.131 mg/L
Neutralization by PGT-125, IC50 [15]: 0.0106 mg/L
Neutralization by PGT-125, IC80 [15]: 0.035 mg/L
Neutralization by PGT-125, IC90 [15]: 0.0705 mg/L
Neutralization by PGT-125, IC95 [15]: 0.134 mg/L
Neutralization by PGT-125, IC50 [16]: 5.78 mg/L
Neutralization by PGT-125, IC80 [16]: > 10 mg/L
Neutralization by PGT-125, IC90 [16]: > 10 mg/L
Neutralization by PGT-125, IC95 [16]: > 10 mg/L

5136_H01 (PGT-131) (antibody)
Fold IC50 increase relative to wild-type [17]: 1.8 fold

5141_B17 (PGT-126) (antibody)
Neutralization IC80 [18]: 0.0168 mg/L
Neutralization IC90 [18]: 0.0359 mg/L
Neutralization IC95 [18]: 0.0728 mg/L
neutralization IC50 [18]: 0.0046 mg/L
Neutralization IC80 [19]: 0.145 mg/L
Neutralization IC90 [19]: 0.553 mg/L
Neutralization IC95 [19]: 2.45 mg/L
neutralization IC50 [19]: 0.0181 mg/L
Neutralization IC80 [20]: 4.43 mg/L
Neutralization IC90 [20]: > 10 mg/L
Neutralization IC95 [20]: > 10 mg/L
neutralization IC50 [20]: 0.501 mg/L
Neutralization IC80 [21]: 0.0345 mg/L
Neutralization IC90 [21]: 0.0831 mg/L
Neutralization IC95 [21]: 0.185 mg/L
neutralization IC50 [21]: 0.0076 mg/L
Neutralization IC80 [22]: > 10 mg/L
Neutralization IC90 [22]: > 10 mg/L
Neutralization IC95 [22]: > 10 mg/L
neutralization IC50 [22]: 1.14 mg/L

5329_C19 (PGT-136) (antibody)
Neutralization IC80 [23]: > 10 mg/L
Neutralization IC90 [23]: > 10 mg/L
Neutralization IC95 [23]: > 10 mg/L
neutralization IC50 [23]: > 10 mg/L
Neutralization IC80 [24]: > 10 mg/L
Neutralization IC90 [24]: > 10 mg/L
Neutralization IC95 [24]: > 10 mg/L
neutralization IC50 [24]: > 10 mg/L
Neutralization IC80 [25]: > 10 mg/L
Neutralization IC90 [25]: > 10 mg/L
Neutralization IC95 [25]: > 10 mg/L
neutralization IC50 [25]: > 10 mg/L
Neutralization IC80 [26]: > 10 mg/L
Neutralization IC90 [26]: > 10 mg/L
Neutralization IC95 [26]: > 10 mg/L
neutralization IC50 [26]: > 10 mg/L
Neutralization IC80 [27]: > 10 mg/L
Neutralization IC90 [27]: > 10 mg/L
Neutralization IC95 [27]: > 10 mg/L
neutralization IC50 [27]: > 10 mg/L

PGV04 (antibody)
IC50 (µg/mL), pseudovirus neutralization [28]: 17.5 µg/mL
IC50 (µg/mL), pseudovirus neutralization [29]: 1.03 µg/mL
IC50, pseudovirus neutralization [30]: 0.553 mg/L
IC50 [31]: 0.093 mg/L
IC50 [32]: 0.555 mg/L
